# Laboratory results taken from patent CN106754739A.
# B1: 小鼠抗人P53单克隆抗体6C4 (mouse anti-human P53 monoclonal antibody from hybridoma 6C4, CGMCC No. 6916) (antibody, part only; not given: light chain variable region, V domains shown, part only)
# VH: DFCWSLSGVGVGCHLVTNSGKGLEWLAHIWWDDDKSYNPALKSRLTISKDTSTNQVFLKIASVDTADTATYYCARMTTATFAYWGQGTLVTVSPASTTPPISQ
# Target: 原核表达的重组人P53蛋白 (recombinant human P53 expressed in E. coli BL21 from PET28a-P53, Ni-NTA purified) (human) (UniProt P04637)
# Assay: direct ELISA, purified antibody diluted 1:200 to 1:12800 on plates coated with purified P53 (10 μg/ml), goat anti-mouse IgG-HRP, OD450
# Sequence of UniProt P04637 (P04637 whole entry): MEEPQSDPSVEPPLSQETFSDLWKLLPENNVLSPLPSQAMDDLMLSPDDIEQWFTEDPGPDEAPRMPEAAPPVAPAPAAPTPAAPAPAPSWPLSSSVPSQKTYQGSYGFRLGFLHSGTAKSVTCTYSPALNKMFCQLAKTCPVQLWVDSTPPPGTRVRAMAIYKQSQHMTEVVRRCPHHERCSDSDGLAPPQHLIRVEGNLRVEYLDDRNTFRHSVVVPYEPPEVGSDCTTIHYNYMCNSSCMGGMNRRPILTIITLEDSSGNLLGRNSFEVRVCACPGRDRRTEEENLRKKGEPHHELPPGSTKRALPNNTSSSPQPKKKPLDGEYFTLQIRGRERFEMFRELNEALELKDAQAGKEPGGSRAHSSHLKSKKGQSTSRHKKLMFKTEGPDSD
binder,measurement,value
B1,ELISA titer (滴度) (dilution factor (1:x)),> 10000
